Measurements reported in publication PMC12693692, “Benzodioxane-benzamides targeting bacterial cell division protein FtsZ potentially disrupt SlmA-mediated nucleoid occlusion and reversible biomolecular condensation” (International journal of biological macromolecules, 2025).

B1: FtsZ (E. coli cell division protein, tubulin-like GTPase) (natural protein, UniProt P0A9A6 1-383, looked up)
chain: MFEPMELTNDAVIKVIGVGGGGGNAVEHMVRERIEGVEFFAVNTDAQALRKTAVGQTIQIGSGITKGLGAGANPEVGRNAADEDRDALRAALEGADMVFIAAGMGGGTGTGAAPVVAEVAKDLGILTVAVVTKPFNFEGKKRMAFAEQGITELSKHVDSLITIPNDKLLKVLGRGISLLDAFGAANDVLKGAVQGIAELITRPGLMNVDFADVRTVMSEMGYAMMGSGVASGEDRAEEAAEMAISSPLLEDIDLSGARGVLVNITAGFDLRLDEFETVGNTIRAFASDNATVVIGTSLDPDMNDELRVTVVATGIGMDKRPEITLVTNKQVQQPVMDRYQQHGMAPLTQEQKPVAKVVNDNAPQTAKEPDYLDIPAFLRKQAD
modifications: tracer fraction only (10-50 nM in 10 uM unlabeled FtsZ): Alexa Fluor 488 succinimidyl ester at the amino groups, 0.4-0.5 mol of dye per mole of protein
notes: FtsZ, E. coli; it is kept as the same molecule; Polymers were triggered with GTP; also called FtsZ-GTP; FtsZ polymers
B2: SlmA (E. coli nucleoid occlusion protein), bound to its DNA site SBS (natural protein, UniProt P0C093 1-198, looked up)
chain: MAEKQTAKRNRREEILQSLALMLESSDGSQRITTAKLAASVGVSEAALYRHFPSKTRMFDSLIEFIEDSLITRINLILKDEKDTTARLRLIVLLLLGFGERNPGLTRILTGHALMFEQDRLQGRINQLFERIEAQLRQVLREKRMREGEGYTTDETLLASQILAFCEGMLSRFVRSEFKYRPTDDFDARWPLIAAQLQ
notes: SlmA, E. coli; the DNA is not a chain; also called SlmA-SBS; SlmA nucleoprotein complexes

Legend:
[1] = target: the molecule itself; experiment: fluorescence correlation spectroscopy; FtsZ 10 uM (10 nM FtsZ-Alexa 488 as tracer), with 2 mM GTP and regeneration system against no GTP; dilute solution buffer; self-association into polymers
[2] = target: B1; experiment: fluorescence polarisation; fluorescence anisotropy binding titration in solution: SlmA (1 uM) and SBS-Fl (10 nM) with increasing concentrations of FtsZ, right after 2 mM GTP; with or without 20 uM FZ95 or FZ100; 25 C; 50 mM Tris-HCl pH 7.5, 300 mM KCl, 5 mM MgCl2; 1:1 model, apparent parameters; conditions: both partners purified

Binder	binding result [1]	binding result [2]
B1	binds	–
B2	–	binds
